One substance from patent US20230272114A1 can be followed below.

Assay in all cases: Biacore SPR
On the technique in general: SPR reads the build-up and loss of mass on a sensor chip optically.

Test [1] has as its target human H131 FcγRIIa (human) (UniProt P12318).
For test [2], the target named is recombinant human FcγRIIb protein (R&D Systems) (human) (UniProt P31994).
Test [3] has as its target human V158 FcγRIIIa (human) (UniProt P08637).
The target in the next test is human FcγRI (human) (UniProt P12314).
Chain of human FcγRI (human) (P12314 16-288): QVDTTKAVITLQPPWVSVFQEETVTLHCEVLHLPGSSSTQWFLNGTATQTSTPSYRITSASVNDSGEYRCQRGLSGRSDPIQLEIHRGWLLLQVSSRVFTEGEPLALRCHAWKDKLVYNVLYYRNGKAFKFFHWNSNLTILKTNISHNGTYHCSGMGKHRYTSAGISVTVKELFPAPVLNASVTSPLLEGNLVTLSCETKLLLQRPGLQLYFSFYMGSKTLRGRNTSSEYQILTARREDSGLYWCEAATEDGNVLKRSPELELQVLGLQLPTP

Chain of recombinant human FcγRIIb protein (R&D Systems) (human) (P31994 46-217): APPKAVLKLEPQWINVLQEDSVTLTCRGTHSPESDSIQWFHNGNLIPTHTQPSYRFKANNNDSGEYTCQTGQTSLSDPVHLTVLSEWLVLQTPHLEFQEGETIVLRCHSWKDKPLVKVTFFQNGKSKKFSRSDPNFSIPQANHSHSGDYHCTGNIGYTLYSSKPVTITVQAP

As for “anti-CD19 antibody HuAM4G7 IgG1 Fc variant S239D/S267E”, the dissociation constant (Kd) (as a rule, the constant that tells how readily two partners part at equilibrium) came out at 700 nM in test [1], 12 nM in test [2], 62 nM in test [3] and 0.17 nM in the test with human FcγRI (human).
